Measurements taken from patent publication US20260176346A1.

Target: recombinant human VEGF (R&D Systems, 293-VE-010) (human) (UniProt P15692)
Test: Octet HTX biosensor (BLI); positive control antibody at 10 ug/mL in 1x kinetics buffer; recombinant human VEGF in 1:2 series, 200 nM to 3.125 nM

Chain of UniProt P15692 (P15692 other isoform, or with tags, fused parts or gaps limits assumed): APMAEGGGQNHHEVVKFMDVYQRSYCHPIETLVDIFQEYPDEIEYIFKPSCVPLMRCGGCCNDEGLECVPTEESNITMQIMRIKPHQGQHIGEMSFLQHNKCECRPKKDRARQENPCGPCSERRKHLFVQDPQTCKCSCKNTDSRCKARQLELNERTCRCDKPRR

Kd: 0.229 nM
koff: 7.77e-05 s⁻¹
kon: 340000 M⁻¹ s⁻¹
Substance: mouse anti-human VEGF monoclonal antibody (anti-hVEGF MmAb; R&D Systems, MAB293-100)
